Like-named read-outs stand apart in the source and are kept apart here.
Tests used:
[1] = molecular target: T1, human ROR1 expressed on cells (human, UniProt Q01973 30-937); assay: cell-based or functional assay
[2] = molecular target: T1, human ROR1 expressed on cells; assay: cell-based or functional assay; remark: listed apart in the source
[3] = molecular target: T1, human ROR1 expressed on cells; assay: cell-based or functional assay; remark: listed apart in the source
[4] = molecular target: T2, recombinant human ROR1 protein (Fc-Tag, Acro Biosystems RO1-H5250) (human, UniProt Q01973 30-406); assay: SPR; hROR1-Fc immobilized (Avidity)
T2 construct: Bought; also called hROR1; recombinant human ROR1 ECD; not shown: Fc tag

[5] = molecular target: T3, recombinant human CD3 epsilon extra-cellular domain protein (His-Tag, SinoBiological) (human, UniProt P07766 23-126); assay: SPR; hCD3ε immobilized, two-state fit
T3 construct: extracellular domain; Bought; also called hCD3ε; human CD3ε; not shown: His tag

[6] = molecular target: T3, recombinant human CD3 epsilon …; assay: SPR; hCD3ε immobilized, two-state fit (Ka1)
[7] = molecular target: T3, recombinant human CD3 epsilon …; assay: SPR; hCD3ε immobilized, two-state fit (kd1)
[8] = molecular target: T1, human ROR1 expressed on cells; assay: flow cytometry, MDA-MB-231 cells, 1 mg/ml hSA
[9] = molecular target: T4, human ROR1 (Peprotech 160-054) (human, UniProt Q01973 30-406); assay: SPR; MATCH4 captured, hROR1 analyte (Affinity)
T4 construct: Bought, used as analyte; also called hROR1; recombinant human ROR1 protein

[10] = molecular target: T1, human ROR1 expressed on cells; assay: flow cytometry, JIMT-1 cells (ROR1-positive)
[11] = molecular target: T5, human serum albumin (Sigma-Aldrich A3782) (human, UniProt P02768 25-609); assay: SPR; hSA immobilized, pH 5.5
T5 construct: also called hSA; HSA

B1: PRO2590 (bispecific antibody)
chain 1: DVQMTQSPSSLSASVGDRVTITCRASENIYSGLAWYQQKPGKPPKLLIYRASTLASGVSSRFSGSGSGTDFTLTISSLQPEDFATYYCQGGYYSSSSTYIAFGCGTKVTVLGGGGGSGGGGSGGGGSGGGGSQSQVVESGGGLVQPGGSLRLSCAVSGFDLSSYAVSWVRQAPGKCLEWIGIIYPRANTYYASWAKGRFTISKDNSKNTVYLQMNSLRAEDTAVYFCARDRYDSGAYLYTTYFNLWGQGTLVTVSSGGGGSGGGGSAFELTQSPSSLSASVGDRVTITCQASESINSRLAWYQQKPGQPPKLLIYDASDLTSGVPSRFSGSGSGTDFTLTISSLQPEDFATYYCQGYGGSSTTTFGCGTKLTVLGGGSGGSDIQMTQSPSSLSASVGDRVTITCQSSQSVFSNNYLAWFQQKPGQSPKRLIYSASTLASGVPSRFSGSGSGTDFTLTISSLQPEDFATYYCLGSYACSSADCYVFGTGTKVTVLG
chain 2: DVQMTQSPSSLSASVGDRVTITCRASENIYSGLAWYQQKPGKPPKLLIYRASTLASGVSSRFSGSGSGTDFTLTISSLQPEDFATYYCQGGYYSSSSTYIAFGCGTKVTVLGGGGGSGGGGSGGGGSGGGGSQSQVVESGGGLVQPGGSLRLSCAVSGFDLSSYAVSWVRQAPGKCLEWIGIIYPRANTYYASWAKGRFTISKDNSKNTVYLQMNSLRAEDTAVYFCARDRYDSGAYLYTTYFNLWGQGTLVTVSSGGGGSGGGGSEVQLVESGGGLVQPGGSLRLSCAASGFSLSSYDMSWVRQAPGKGLAWIGASYASGPTYYASWAKGRFTISRDNSKNTVYLQMNSLRAEDTATYFCARGGWTGTSHSNIWGQGTLVTVSSGGGSGGGSGGGSGEVQLVESGGGLVQPGGSLRLSCAASGFSLSSYAMNWVRQAPGKCLEWIGHINAGDIAYYATWAKGRFTISRDNSKNTVYLQMNSLRAEDTAVYFCARGAGGFSTGPFKLWGQGTLVTVSS
notes: heterodimeric MATCH4, bivalent for ROR1, monovalent for CD3 and hSA; also called MATCH4 with 55-38-D07-sc06 / 19-04-A10-sc06 / 28-21-D09-sc04 / 55-38-D07-sc06
- Avg. % max. lysis (JIMT-1) [1]: 38.6%
- Avg. % max. lysis (MDA-MB-231) [1]: 52.2%
- Avg. % max. lysis (SKOV3) [1]: 51.8%
- Avg. EC50 (nM) CD8 T cell act. (MDA-MB-231) [1]: 0.013 nM
- Avg. EC50 (nM) CD8 T cell act. (SKOV3) [1]: 0.034 nM
- Avg. EC50 (nM) Cytotoxicity (JIMT-1) [1]: 0.13 nM
- Avg. EC50 (nM) Cytotoxicity (MDA-MB-231) [1]: 0.016 nM
- Avg. EC50 (nM) Cytotoxicity (SKOV3) [1]: 0.049 nM
- Avg. % max. CD8 T cell act. (JIMT-1) [2]: 22.5%
- Avg. % max. CD8 T cell act. (MDA-MB-231) [2]: 68.8%
- Avg. % max. CD8 T cell act. (SKOV3) [2]: 63.7%
- Avg. EC50 (nM) CD8 T cell act. (JIMT-1) [2]: 0.09 nM
- Avg. EC50 (nM) CD8 T cell act. (MDA-MB-231) [2]: 0.013 nM
- Avg. EC50 (nM) CD8 T cell act. (SKOV3) [2]: 0.034 nM
- Avg. % max. CD4 T cell act. (JIMT-1) [3]: 35.3%
- Avg. % max. CD4 T cell act. (MDA-MB-231) [3]: 79.3%
- Avg. % max. CD4 T cell act. (SKOV3) [3]: 78.3%
- Avg. EC50 (nM) CD4 T cell act. (JIMT-1) [3]: 0.11 nM
- Avg. EC50 (nM) CD4 T cell act. (MDA-MB-231) [3]: 0.007 nM
- Avg. EC50 (nM) CD4 T cell act. (SKOV3) [3]: 0.02 nM
- Kd [4]: 0.136 nM
- koff [4]: 6.15e-05 s⁻¹
- kon [4]: 453000 M⁻¹ s⁻¹
- Ka2 [5]: 0.0055 s⁻¹
- Kd [5]: 5.7 nM
- Kd2 [5]: 0.0043 s⁻¹
- kon [6]: 450000 M⁻¹ s⁻¹
- koff [7]: 0.0058 s⁻¹
- EC50 [8]: 1.23 nM
- Rel. maximum binding (MFIMATCH4/MFIPRO2213) [8]: 2.76
- rel. EC50 (EC50, PRO2213/EC50, MATCH4) [8]: 0.56
- Kd [9]: 2.9 nM
- koff [9]: 0.00017 s⁻¹
- kon [9]: 59000 M⁻¹ s⁻¹
- EC50 (read off the curve) [10]: 1 to 2 nM

B2: PRO2670 (bispecific antibody)
chain 1: DVQMTQSPSSLSASVGDRVTITCRASENIYSGLAWYQQKPGKPPKLLIYRASTLASGVSSRFSGSGSGTDFTLTISSLQPEDFATYYCQGGYYSSSSTYIAFGCGTKVTVLGGGGGSGGGGSGGGGSGGGGSQSQVVESGGGRVQPGGSLRLSCAVSGFDLSSYAVSWVRQAPGKCLEWIGIIYPRANTYYASWAKGRFTISKDNSKNTVYLQMNSLRAEDTATYFCARDRYDSGAYLYTTYFNLWGQGTQVTVSSGGGGSGGGGSAFELTQSPSSLSASVGDRVTITCQASESINSRLAWYQQKPGQPPKLLIYDASDLTSGVPSRFSGSGSGTDFTLTISSLQPEDFATYYCQGYGGSSTTTFGCGTKLTVLGGGSGGSDIQMTQSPSSLSASVGDRVTITCQSSQSVFSNNYLAWFQQKPGQSPKRLIYSASTLASGVPSRFSGSGSGTDFTLTISSLQPEDFATYYCLGSYACSSADCYVFGTGTKVTVLG
chain 2: DVQMTQSPSSLSASVGDRVTITCRASENIYSGLAWYQQKPGKPPKLLIYRASTLASGVSSRFSGSGSGTDFTLTISSLQPEDFATYYCQGGYYSSSSTYIAFGCGTKVTVLGGGGGSGGGGSGGGGSGGGGSQSQVVESGGGRVQPGGSLRLSCAVSGFDLSSYAVSWVRQAPGKCLEWIGIIYPRANTYYASWAKGRFTISKDNSKNTVYLQMNSLRAEDTATYFCARDRYDSGAYLYTTYFNLWGQGTQVTVSSGGGGSGGGGSEVQLVESGGGRVQPGGSLRLSCAASGFSLSSYDMSWVRQAPGKGLAWIGASYASGPTYYASWAKGRFTISRDNSKNTVYLQMNSLRAEDTATYFCARGGWTGTSHSNIWGQGTQVTVSSGGGSGGGSGGGSGEVQLVESGGGRVQPGGSLRLSCAASGFSLSSYAMNWVRQAPGKCLEWIGHINAGDIAYYATWAKGRFTISRDNSKNTVYLQMNSLRAEDTATYFCARGAGGFSTGPFKLWGQGTQVTVSS
notes: heterodimeric MATCH4, modified VH domains, optimized variant of PRO2590; also called MATCH4 with 55-38-D07-sc06(RTQ) / 19-04-A10-sc02(RTQ) diS / 28-21-D09-sc04(RTQ) / 55-38-D07-sc06(RTQ); RPO2670
- Kd [11]: 3.5 nM
- koff [11]: 0.0013 s⁻¹
- kon [11]: 370000 M⁻¹ s⁻¹
- Kd [4]: 0.11 nM
- koff [4]: 8.1e-05 s⁻¹
- kon [4]: 760000 M⁻¹ s⁻¹
- Ka2 [5]: 0.0054 s⁻¹
- Kd [5]: 2.7 nM
- Kd2 [5]: 0.0047 s⁻¹
- kon [6]: 820000 M⁻¹ s⁻¹
- koff [7]: 0.0048 s⁻¹
- EC50 [8]: 0.85 nM
- Rel. maximum binding (MFIMATCH4/MFIPRO2213) [8]: 2.68
- rel. EC50 (EC50, PRO2213/EC50, MATCH4) [8]: 0.39
- Kd [9]: 2.87 nM
- koff [9]: 0.000132 s⁻¹
- kon [9]: 46000 M⁻¹ s⁻¹
